Laboratory results as given in patent US20110002929A1 (Ablynx, published 2011).
Like-named read-outs stand apart in the source and are kept apart here.

T1: human RANK-L (human, UniProt O14788 140-317, limits assumed)
T1 construct: Soluble protein, used coated, biotinylated or labelled in ELISA, AlphaScreen, FMAT and Biacore; also called hRANK-L; soluble human RANK-L
T1 sequence (looked up): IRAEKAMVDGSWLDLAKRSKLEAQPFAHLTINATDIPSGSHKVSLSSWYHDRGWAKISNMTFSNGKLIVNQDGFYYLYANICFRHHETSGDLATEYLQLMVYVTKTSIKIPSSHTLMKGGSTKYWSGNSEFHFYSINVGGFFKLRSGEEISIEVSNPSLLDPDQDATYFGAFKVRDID

T2: human RANK-L, full length, membrane-bound, expressed on HEK293T cells (human, UniProt O14788 1-317)
T2 construct: whole, on cells; also called hRANK-L
T2 sequence (looked up): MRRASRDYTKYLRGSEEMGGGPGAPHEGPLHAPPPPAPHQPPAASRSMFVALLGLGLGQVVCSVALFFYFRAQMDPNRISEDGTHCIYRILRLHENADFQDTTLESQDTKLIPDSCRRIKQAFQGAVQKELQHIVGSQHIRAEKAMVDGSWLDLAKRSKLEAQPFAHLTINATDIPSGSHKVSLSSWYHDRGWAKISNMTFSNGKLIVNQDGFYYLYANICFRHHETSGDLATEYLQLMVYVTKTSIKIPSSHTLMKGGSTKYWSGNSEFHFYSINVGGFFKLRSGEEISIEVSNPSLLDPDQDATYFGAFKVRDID

T3: CD40 ligand (UniProt P29965 113-261, limits assumed)
T3 sequence (looked up): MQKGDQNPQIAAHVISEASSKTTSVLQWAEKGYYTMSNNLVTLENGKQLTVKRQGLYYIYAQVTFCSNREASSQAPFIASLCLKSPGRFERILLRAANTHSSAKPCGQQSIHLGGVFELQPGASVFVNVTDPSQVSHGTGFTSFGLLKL

T4: cynomolgus RANK-L, full length, membrane-bound, expressed on HEK293T cells (cynomolgus monkey, UniProt A0A7N9DBU4 1-317)
T4 construct: whole, on cells; also called cyno RANK-L
T4 sequence: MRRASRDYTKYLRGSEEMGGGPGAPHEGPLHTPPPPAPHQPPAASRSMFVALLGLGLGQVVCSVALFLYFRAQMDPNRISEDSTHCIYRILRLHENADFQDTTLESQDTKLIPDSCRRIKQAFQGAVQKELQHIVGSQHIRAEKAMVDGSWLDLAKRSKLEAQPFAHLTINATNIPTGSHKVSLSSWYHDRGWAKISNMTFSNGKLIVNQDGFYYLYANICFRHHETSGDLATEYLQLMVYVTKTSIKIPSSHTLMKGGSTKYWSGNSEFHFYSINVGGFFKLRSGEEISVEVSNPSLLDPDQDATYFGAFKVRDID


Columns and labels:
human RANK-L [1] = target: T1, human RANK-L; assay: FMAT, ALEXA647-hRANK-L / RANK on HEK293T cells
human RANK-L [2] = target: T1, human RANK-L; assay: FMAT, ALEXA647-hRANK-L / RANK on HEK293T cells; remark: listed apart in the source
Experimental: HEK293T cells were transiently transfected with the plasmid expressing full length RANK using Fugene6 as described in example 3. After 24 hours aliquots of 60 μl (7.5×10³ cells) were plated into FMAT system 384-well plates (PE Biosystems, CA, US) and allowed to adhere for 24 h. After overnight adherence, culture supernatant was removed by gently tapping the plate. […] The plates were scanned after 10 hours of incubation. Cell surface fluorescence was measured by 8200 Cellular Detection System (Applied Biosystems, Foster City, Calif., US) which is a fluorescence macro-confocal, biological binding event analyzer that enables mix-and-read assays with live cells.

[3] = target: T2, human RANK-L, full length, …; assay: FACS, HEK293T with human RANK-L, 80 pM Nanobody
Experimental: (§1) Human embryonic kidney cells (HEK293T) were grown in Dulbecco's modified Eagles's medium supplemented with 10% fetal bovine serum (FBS), […] L-glutamine, 0.4 mM sodium pyruvate. […] After 48 hours, transfected cells were subjected to FACS analysis. […] Then cells were washed three times with FACS buffer. Bound Nanobodies were detected by subsequent incubations of a primary mouse anti Myc antibody (30 min at 4° C. (2 μg/ml)) and a second incubation with goat anti mouse-Phycoerythrin (PE) (Jackson Laboratories) for another 30 min at 4° C. Finally, after washing, the cells were resuspended in PBS+10% FBS+TO-PRO®-3 (5 nM) (Molecular Probes®, Invitrogen, Merelbeke, Belgium) and cell surface fluorescence expressed as mean PE fluorescence, was measured using flow cytometry.

human RANK-L [4] = target: T1, human RANK-L; assay: cell-based or functional assay
[5] = target: T2, human RANK-L, full length, …; assay: FACS, HEK293T with human RANK-L, 3.2 pM Nanobody
Experimental: as §1

[6] = target: T2, human RANK-L, full length, …; assay: FACS, HEK293T with human RANK-L, 16 pM Nanobody
Experimental: as §1

TRAIL = target: T5, TRAIL (UniProt P50591 114-281, limits assumed); assay: competition ELISA on RANK-L-coated plates, 1 nM Nanobody preincubated with the ligand
T5 construct: also called tumor necrosis factor-related apoptosis inducing ligand

CD40 ligand = target: T3, CD40 ligand; assay: as above
TNFα = target: T6, TNFα (UniProt P01375 77-233); assay: as above
T6 construct: also called TNF-alpha

[7] = target: T4, cynomolgus RANK-L, full length, …; assay: FACS, HEK293T with cynomolgus RANK-L, 2000 pM Nanobody
Experimental: as §1

T6 sequence (P01375 77-233 limits assumed): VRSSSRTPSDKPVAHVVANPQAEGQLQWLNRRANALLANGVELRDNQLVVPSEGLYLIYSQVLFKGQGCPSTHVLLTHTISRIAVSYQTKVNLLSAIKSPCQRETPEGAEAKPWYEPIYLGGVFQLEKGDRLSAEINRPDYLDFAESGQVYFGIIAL
T5 sequence (P50591 114-281 limits assumed): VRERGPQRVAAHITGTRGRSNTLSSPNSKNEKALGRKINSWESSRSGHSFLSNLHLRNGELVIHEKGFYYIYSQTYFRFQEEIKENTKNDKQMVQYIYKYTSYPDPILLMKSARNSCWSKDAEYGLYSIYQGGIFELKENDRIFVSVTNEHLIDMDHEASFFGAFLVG

Binder	IC50 (human RANK-L [1]) [nM]	IC50 (human RANK-L [2]) [nM]	PE mean fluorescence [3]	RANK-L induced NF-kappaB activation (luciferase reporter, HEK293T cells), IC50 (human RANK-L [4]) [nM]	PE mean fluorescence [5]	PE mean fluorescence [6]	binding result (TRAIL)	binding result (CD40 ligand)	binding result (TNFα)	PE mean fluorescence [7]
RANKL13 (VHH, not shown: small tags and cut ends) VHH: EVQLVESGGGLVQAGGSLRLSCAASGRTFRSYPMGWFRQAPGKEREFVASITGSGGSTYYADSVKGRFTISRDNAKNTVYLQMNSLRPEDTAVYSCAAYIRPDTYLSRDYRKYDYWGQGTQVTVSS	0.264	0.429	1530	6.21	220	499	no binding (tested: approximately 100 nM)	no binding (tested: approximately 100 nM)	no binding (tested: approximately 100 nM)	12400
RANKL18 (VHH, not shown: small tags and cut ends) VHH: EVQLVESGGGLVQAGGSLRLSCAASGRTFSRSAMGWFRQAPGKEREFVGFITGSGGTTYYGESVKGRFTISRDNAQNPVYLQMNSLKPEDTAVYYCGVYRRTYISSTYSESSEYDYWGQGTQVTVSS	0.253	0.552	649	15.2	105	218	no binding (tested: approximately 100 nM)	no binding (tested: approximately 100 nM)	no binding (tested: approximately 100 nM)	12000
